According to the DeepSol protein solubility set:

Assay: soluble on expression in E. coli; label from the status in PepcDB or PDB records

Sequence | soluble on expression in E. coli
MRGSHHHHHHMDYASVAMAAAPTTTTTTNVSLRRQRHRKEKLLVLMGATGTGKSRLSIDLAAHFPLEVINSDKMQVYKGLDITTNKISVPDRGGVPHHLLGEVDPARGELTPADFRSLAGKAVSEITGRRKLPVLVGGSNSFIHALLVDRFDSSGPGVFEEGSHSVVSSELRYDCCFLWVDVSVKVLTDYLAKRVDDMLELGMFDELAEFYSPEDEDHDEDSATRTGLRKAIGVPEFDRYFEKFRPGDVEGEDPGRDRVRRGAFEEAVRAIKENTCHLAKRQIGKILRLKGAGWDLRRLDATESFRAAMTSDSGEKCTEIWEKQVLEPSVKIVSRFLDE | soluble
MTAYINQEAAAKLDEVFPLAELALKAYGPEFQGELSLLTHSENSTYLVNAFSGQRFVMRVHRAHYHSRTAIESELAWLDALADEGMEVPKAIAGRDGAKVQTIGDGHAERREVVLFHWINGYQPDQSQQESLIQGFRRLGEITAGLHIHARQWQRPHWFERRLMVGAHAAWGNWQKAPYLDKPGAAIIGKALDKVRMELNEYGNAADLFGLIHADLRLTNLLVEEEITRIIDFDDCGFSWFMHDLAAAVSFIEHSPCLNEWVGSWVNGYSTVLPLSAADHAVIPALITQRRVQLLAWTGTHQGAPQADGLGNIWVVQTIELCEKYLANTLLDCKSIS | not soluble
DYKLFITEGYEVGRVNGLAVIGESAGIVLPIIAEVTPSMSKSEGRVIATGRLQEIAREAVMNVSAIIKKYTGRDISNMDVHIQFVGTYEGVAGDSASISIATAVISAIEGIPVDQSVAMTGSLSVKGEVLPVGGVTQKIEAAIQAGLKKVIIPKDNIDDVLLDAEHEGKIEVIPVSRINEVLEHVLEDGKKKNRLMSKFKELELAAV | soluble
MEETRPIDGLTDEDIREILTRYKKIALVGASPKPERDANIVMKYLLEHGYDVYPVNPKYEEVLGRKCYPSVLDIPDKIEVVDLFVKPKLTMEYVEQAIKKGAKVVWFQYNTYNREASKKADEAGLIIVANRCMMREHERLLGEK | soluble
MTHIAFGHYLHSKRWYTVQVLSKSEDAMSTQLDPTQLAIEFLRRDQSNLSPAQYLKRLKQLELEFADLLTLSSAELKEEIYFAWRLGVH | not soluble
MGSDKIHHHHHHMPSRRGFLAGLLASSVTPTATWADVGAPAYLSAGKDALGLFVMAGLSAAGEVLFRHPLPDRGHAASAHPTRPEAVAFARRPGRFADVIDCRSGAQLARLEPPEGHHFYGHGVFSPEGEVLYTTENDYARGAGVIGVWNAGDYHRIGQFSSGGIGPHEMLLRRDAPGLVVANGGIETHPESGRAKLNIPFMRPNLSYLRLSGEIQHQMELPADLHKNSIRHIAVRSDGAVGFAMQWQGDLGADVPIVGLHQPGSAPRLMAEDDPRLRNLNGYGGSIAFSGDETAIAVTSPRGGVVQVMDCTSGALQAEHALSDVCGLAPLKDGFLVSTGTGIMAQIGTEVTTLTQAPLAWDNHLIALSSAASAPRQP | not soluble
MGSDKIHHHHHHMSDPGQPTLDQLRVFIAVVETGSFAAAARKLNRATSVISYTIANLEAQLGVTLFDRLSTKKPQLTLEGRTVLAEARSVSNGIDNLRAKVKSMLRGIEPEVHLALDVMLPASRVMDALKAFRKEFPSVSLRLYVEALGAVTQIVLNRTATVGISGPLDVDVLGLERIGVGFVQLVPVAAPDHPLAGGSHAPGAARSHIQLVLTDRSPLTQGHEFAVVGTHTWRLADLGAKHMLLKEGIGWGNMPEPMVRDDLADGRLVQLDLPDCKGGPYRLQAIYRTDTPPGPAGRFLIEHFQAQDAKTPTTAW | not soluble
MGSDKIHHHHHHMRKLLVIGLDSVPPLLIEKFRDLIPNLQSLLNVKGKLLSGHPPITVPMWGVMLAGRSAGELGVYGFRHRRPGDVGTSYVVTSRSIAEGWVWDDLGLRLGLRSLVIGVPPGYPARRVRGWFVSCFLTPGVDGAFAWPPGLKREILKASGGDYVFDVKYRVEDKESVRKSLWRLAKTQFKVVKYLLSSKPWDFAMYMHIGTDRVHHAFWKYWDPEHPRYPGEGNPYENVLPEYYSLVDKHIGQLLESLPGDTDVIVVSDHGAKAMKGAFAINQWLEEEGYLSLKEEPKRPGADLEASMIDWDRTMAWAWGGYYSRVYINLKGREPRGIVGREEYWSVVEQLKRDIEKIRGPNGERWENKAYHPSELYPEVRGDAPDLMVYLDNLSWRPAGTIGWPSTYLEENDRGPDDAVHDWHGIIGGNADVLKEAVKDSTVPIQRVKEIILAHYGLESHMKDRGRGAV | not soluble
MAHHHHHHMQTATAPFILRSLYKDAYISDMQIARPITELMMNTIGAQLTNKYDTHIPAIACSLYTLFSMSRVQTLGQEFCDLLPVVKAHPWQPVGPARVLLLAVLQLVEPTAVFVVARKLFPDLSTADVEEVLRKAVLCALFLFERFGTLPHRIARVRFLSLKPSRTLQDSDGAPGSYLVLGLVLLVELVVRLWRYSKERTSREAKRSTEAAVITSSDEDAEDARSGKCMLCLSNRKCPTATNCGHIFCWRCIAEWIQSNPQEAVCPFCRQHITTQSLVPLYFYVAKEPPRVGTATDAAAPPAA | soluble
MSYMLPHLHNGWQVDQAILSEEDRVVVIRFGHDWDPTCMKMDEVLYSIAEKVKNFAVIYLVDITEVPDFNKMYELYDPCTVMFFFRNKHIMIDLGTGNNNKINWAMEDKQEMVDIIETVYRGARKGRGLVVSPKDYSTKYRY | soluble
ACQIFVRNLPFDFTWKMLKDKFNECGHVLYADIKMENGKSKGCGVVKFESPEVAERACRMMNGMKLSGREIDVRIDRNA | soluble
MAVRVAINGFGRIGRNILRAIVESGRTDIQVVAINDLGPVETNAHLLRYDSVHGRFPKEVEVAGDTIDVGYGPIKVHAVRNPAELPWKEENVDIALECTGIFTSRDKAALHLEAGAKRVIVSAPADGADLTVVYGVNNDKLTKDHLVISNASCTTNCLAPVAQVLNDTIGIEKGFMTTIHSYTGDQPTLDTMHKDLYRARAAALSMIPTSTGAAKAVGLVLPELKGKLDGVAIRVPTPNVSVVDLTFIAKRETTVEEVNNAIREAANGRLKGILGYTDEKLVSHDFNHDSHSSVFHTDQTKVMDGTMVRILSWYDNEWGFSSRMSDTAVALGKLI | soluble
EHGWCGHLCPLGAAYGVIGRKSLLRVTAVRREDCTKCMDCFYVCPEPEVLRQPLKEGDRRVMVQNCISCGRCLDVCPEQVFEFKNRLNVKNID | not soluble
MLNVEPSFAEELRSSGVSLSATYLGSVPVVESINVMVSEMRVQVVSLVFLMA | not soluble
MGSDKIHHHHHHMQRDDDSFMLVPSKGEDYMAGWHLDTKMAQDIVARTMRIIDTNINVMDARGRIIGSGDRERIGELHEGALLVLSQGRVVDIDDAVARHLHGVRQGINLPLRLEGEIVGVIGLTGEPESLRKYGELVCMTAEMMLEQSRLMHLLAQDSRLREELVMNLIQAEEHTPALNEWAQRLGIDLNQPRVVAMIEVDSGQLGVDSAMAELQQLQNALTTPDRNNLVAIVSLTEMVVLKPALNSFGRWDADDHVRRVEQLIARMKENGQLRFRVALGNFFTGPGSIARSYRTARTTMMVGKQRMPESRSYFYQDLMLPVLLDSLRGGWQANELARPLARLKAMDNNGLLRRTLQAWFRHNVQPLATSKALFIHRNTLEYRLNRISELTGLDLGSFDDRLLLYIALQLDEQR | not soluble
MRIALIIFPIHASHGCILQTYALYRTLRKLGHDVSIIDRQWDKLSLKNQLVYAVKSLIISIKRKCIRPLTIEGTRKIIMSELQTFVDKHLSNRKIYFRTPRYEELPHYDAFIVGSDQTWRPKYVSDILYYYLCFVPAEEKVKRIAYAPSFGTEEWEYSEQQTLQCRELVSRFDAIAVREDSGAKLCGKYLGINVEHVLDPTMLLNKEDYLSETGIMPSEQNRLSYYLLDNSKSKMQIVEEICKELHLTVQRINTETENHKAGIKERVAPSIEKWIEGFVNSKFIVADSFHATVFAIIFNKHFITIANKDRGIARFESLLKMFGLENRLITDIRQVTPELVHESIDWGKVNQTMWAKQSSSLDYLKFNLGNI | not soluble
SMVQSSGPMDVTSLTEELKKLAKQGWYWGPITRWEAEGKLANVPDGSFLVRDSSDDRYLLSLSFRSHGKTLHTRIEHSNGRFSFYEQPDVEGHTSIVDLIEHSIGDSENGAFCYSRSRLPGSATYPVRLTNPVSRFMQVRS | soluble
RKPSFLALPGHLVKSEETVILQCWSDVMFEHFLLHREGKFNNTLHLIGEHHDGVSKANFSIGPMMPVLAGTYRCYGSVPHSPYQLSAPSDPLDMVIIGLYEKPSLSAQPGPTVQAGENVTLSCSSRSSYDMYHLSREGEAHERRLPAVRSINGTFQADFPLGPATHGGTYRCFGSFRDAPYEWSNSSDPLLVSVT | soluble
MAHHHHHHMGTLEAQTQGPGSMSDIPSDLHYTAEHEWIRRSGDDTVRVGITDYAQSALGDVVFVQLPVIGTAVTAGETFGEVESTKSVSDLYAPISGKVSEVNSDLDGTPQLVNSDPYGAGWLLDIQVDSSDVAALESALTTLLDAEAYRGTLTE | soluble
MSLNRPNHVAPKTLLETLPRDRAESYLNHCSGNSASASALYLWEMDMAAALHEVLSMTEVAVRGAIDAQLQSFAKSHGVASGEWIKERDSLPHLSELRFANGRPLFDHGSLRRMSRKQEGGRTRMHPRSQASTSHGDLIAQVMFGTWGAMLPDKNDSRPQSVQDAINGLWREALQEAFPQYREGHHHHHH | soluble
MAKRIVAMSSTHIAMLDAIGEVRCITGVSGIDYISNPDIQARRDSIGDVGYEGNINYELLLSLDPDLVLLYGVNGASAMESKLEELDIPFMYVGDYLEESPLGKAEWMVVLSEVTGKREKGEKAFAAIPVRYNALKKKVADSTLEHHHHHH | soluble
SASASTQPAALSAEQAKVVLAEVIQAFSAPENAVRMDEARDNACNDMGKMLQFVLPVATQIQQEVIKAYGFSCDGEGVLKFARLVKSYEAQDPEIASLSGKLKALFLPPMTLPPHGPAAGGSVAAS | soluble
MDTYKLILNGKTLKGETTTEAVDAATAEKVFKHYANEHGVHGHWTYDPETKTFTVTE | soluble
MSQEFVGRWKLIHSENFEEYMKEVGVGLITRKAAANLKPTLEIKVEGDLWYSNQYSTFKNTTLSFKLGQEFDETTPDGRTVKSVVNFENGKFIHIQKKIKDSDKESIITRWLEGDKLITTLESGSVVSRREYVRE | not soluble
MTTQFKPELLSPAGSLKNMRYAFAYGADAVYAGQPRYSLRVRNNEFNHANLKIGIDEAHSLGKKFYVVVNIAPHNSKLKTFIKDLQPVIDMKPDALIMSDPGLIMLVRENFPNIDIHLSVQANAVNWATVKFWKQMGLTRVILSRELSIDEIAEIRQQVPDIELEIFVHGALCMAYSGRCLLSGYINKRDPNQGTCTNACRWEYKMEEGTTDDVGNIVPKIDPAQQIEVKNVAPTLGEGAVTDKVFLYTESQKPDEQMTAFEDKHGTYFMNSKDLRAVQHVEKLTALGVHSLKIEGRTKSFYYCARTAQVYRKAIDDAAAGKPFDESLMDTLESLAHRGYTEGFLRRHTHDEYQNYEYGYSISDRQQFVGEFTGKRNEQGMAEVAVKNKFLLGDNVEMMTPQGNINFKIEKMLNRKNETVDAALGDGHFVFLNVPQDINLNYALLMRNLVNTNTRNPHSN | not soluble
